System: αvβ3 integrin plaque-like cell/matrix areas in human preosteoblasts
Experiment: Immunocytochemical localization of cell surface αvβ3 integrin plaques in non-permeabilized cells
Assay type: cell-based
Settings: bone marrow stromal cells in osteogenic medium with 40 ng/ml OP-1 for 48 hours, non-strained, no Triton X-100; compare FIG. 1C with FIG. 2C
Description: Bone marrow stromal cells grown to semi-confluence and then exposed to osteogenic medium containing 10 mM of β-glycerophosphate, 50 μg/ml ascorbic acid and 40 ng/ml of osteogenic protein OP-1(32) also referred to as bone morphogenetic protein-7 (BMP-7), for 48 hours were defined as preosteoblasts. These preosteoblast cultures are characterized by alkaline phosphatase activity of 80,000 nmole pNPP/min./μg protein, osteopontin expression, absence of osteocalcin expression, and mineralization after 14 days in osteogenic media. […]
Immunocytochemical analysis essentially was performed as previously described (34). […] The results were analyzed either on Zeiss Fluorescent Microscope (Axioscope) using a 63× oil immersion lens or on a Zeiss laser confocal microscope using a 63× lens. […]
In order to examine whether mechanical strain has a qualitative and/or quantitative effect on the localization and expression level of integrins, near-confluent human preosteoblasts and osteoprogenitors were strained on Flexcell Strain Apparatus, as described in Methods. […] In the presence of Triton X-100, which leads to cell permeabilization and thus, allows examination of the distribution of intracellular as well as cell surface molecules, the αvβ3 integrin, as detected by an anti-human αvβ3 antibody, was localized along actin fibers and in small, granular structures adjacent to actin fibers (FIGS. 1A, 1B, 2A and 2B). […]

B1: OP-1: osteogenic protein OP-1, also referred to as bone morphogenetic protein-7 (BMP-7), component of the osteogenic medium (protein, UniProt P18075 293-431, looked up)
Bone morphogenetic protein 7: STGSKQRSQNRSKTPKNQEALRMANVAENSSSDQRQACKKHELYVSFRDLGWQDWIIAPEGYAAYYCEGECAFPLNSYMNATNHAIVQTLVHFINPETVPKPCCAPTQLNAISVLYFDDSSNVILKKYRNMVVRACGCH
  number of the plaque-like cell/matrix areas of the αvβ3 expression: stimulation

— US6713249B2, “Cell matrix plaques of initial bone formation” (Barnes-Jewish Hospital, priority 1998, dated 2004)
